The source of these data is US20260152557A1 (Adimab, published 2026).

Assay [1] concerns the target T1, cynomolgus CD3 on HSC-F cells (cynomolgus, UniProt Q95LI5 22-198).
T1 construct: whole, on cells; also called Cyno HSC-F; cynomolgus HSC-F cells
The assay is described as follows: flow cytometry, yeast-produced IgG 100 nM on HSC-F cells, pH 6.0. The procedure:
(§1) Anti-CD3 antibodies Antibody Nos. 1-13 were produced as aglycosylated IgGs comprising a IgG1 Fc region in yeast cells. Binding to human or cynomolgus CD3-expressing cells (human CD3+ Jurkat cells or cynomolgus HSC-F cells, respectively) at pH 7.4 and pH 6.0 were measured by fluorescence-activated single cell sorting (FACS). Normalized cell binding (NCB) values were calculated based on median fluorescence intensity (MFI) values, CD3 negative Jurkat cells were used as a negative control.
(§2) Cell binding assay, CD3+ and CD3− human Jurkat cells (ATCC) and cynomolgus HSC-F cells (NIH) were thawed and washed with cold PBSF buffer, pH 7.4 (PBS+0.1% BSA, pH 7.4). About 200,000 cells were aliquoted per well of a 96-well plate (FACS Assay Plate VWR BD 353263) and pelleted by centrifugation (5 minutes at 500×g). The cells were washed with either PBSF pH 7.4 or PBSF pH 6.0 (PBS+0.1% BSA, pH 6.0), and then resuspended in 100 μl in either PBSF pH 7.4 or PBSF pH 6.0 with IgG antibody (100 nM) produced in yeast as described above. The mixture (cells+antibody) was incubated for 20 minutes on ice, then washed twice with either PBSF pH 7.4 or PBSF pH 6.0. Cells were resuspended in 50 μl of propidium iodide (Roche; 1:500 dilution) and anti-human IgG-RPE (Southern Biotech; 1:100 dilution) prepared in either PBSF pH 7.4 or PBSF pH 6.0, then incubated for 20 minutes on ice in the dark before cells were washed twice with either PBSF pH 7.4 or PBSF pH 6.0. Binding was analyzed on FACS Canto 11.

The target in assay [2] is T1, cynomolgus CD3 on HSC-F cells. In words: flow cytometry, yeast-produced IgG 100 nM on HSC-F cells, pH 7.4. Here is the method: as §1, §2
The target of assay [3] is T2, human CD3 on CD3+ Jurkat cells (human, UniProt P07766 23-207).
T2 construct: whole, on cells; The whole CD3 complex stands on the cells; also called Human CD3 Jurkat; human CD3+ Jurkat cells
T2 sequence (P07766 23-207): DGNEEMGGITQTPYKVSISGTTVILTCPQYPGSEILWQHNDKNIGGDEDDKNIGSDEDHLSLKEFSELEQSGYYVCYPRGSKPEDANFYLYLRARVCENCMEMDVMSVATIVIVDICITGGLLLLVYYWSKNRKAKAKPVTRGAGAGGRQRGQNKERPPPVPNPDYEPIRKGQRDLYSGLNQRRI
In words: flow cytometry, yeast-produced IgG 100 nM on CD3+ Jurkat cells, pH 7.4. Here is the method: as §1, §2

Assay [4] deals with T3, cynomolgus CD3εδ-Fc heterodimer (Cy CD3ε Fc / CD3δ Fc-HIS) (cynomolgus, UniProt Q95LI8 22-100).
T3 construct: range 22-100; Produced in HEK 293 cells; also called Cy CD3εδ Fc heterodimer; not shown: Fc-HIS part of CD3δ Fc-HIS
T3 sequence (chain, as listed by the source mutant, form in doubt, chain 1 of 2): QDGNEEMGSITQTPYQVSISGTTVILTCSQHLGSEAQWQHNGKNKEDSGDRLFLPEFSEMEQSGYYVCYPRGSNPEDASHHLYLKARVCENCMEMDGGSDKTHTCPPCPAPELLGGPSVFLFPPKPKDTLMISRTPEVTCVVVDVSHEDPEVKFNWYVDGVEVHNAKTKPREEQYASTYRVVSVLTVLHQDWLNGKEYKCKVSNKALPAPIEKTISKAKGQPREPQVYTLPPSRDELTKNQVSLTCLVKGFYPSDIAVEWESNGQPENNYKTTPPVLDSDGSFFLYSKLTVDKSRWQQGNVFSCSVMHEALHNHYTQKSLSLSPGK
T3 sequence (Q95LI8 22-100, stated change not applied, form in doubt, chain 2 of 2): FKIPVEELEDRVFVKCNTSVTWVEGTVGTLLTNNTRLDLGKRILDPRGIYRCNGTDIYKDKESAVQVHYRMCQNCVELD
The assay is described as follows: BLI (Octet), CHO-produced IgG on AHC sensor, CD3εδ-Fc 100 nM in solution, pH 6.0. The procedure:
(§3) Anti-CD3 antibodies Antibody Nos. 1-13 were produced as human IgG1 antibodies in yeast or CHO cells. IgGs produced in yeast were aglycosylated, CHO) produced IgGs had standard CH2 glycosylation. Binding affinity to human or cynomolgus CD3εδ-Fc at pH 7.4 and pH 6.0 was measured via biolayer interferometry (BLI) using the ForteBio OCTET® HTX system and analyzed using the ForteBio software.
(§4) Kinetics were analyzed using the 1:1 binding model.

Assay [5] addresses T2, human CD3 on CD3+ Jurkat cells. The assay is described as follows: flow cytometry, yeast-produced IgG 100 nM on CD3+ Jurkat cells, pH 6.0. The procedure:
as §1, §2

For assay [6], the target named is T4, human CD3εδ-Fc heterodimer (Hu CD3ε Fc / CD3δ Fc-HIS) (human, UniProt P04234 22-100).
T4 construct: range 22-100; Produced in HEK 293 cells with a heterologous signal peptide; heterodimer purified by Ni Sepharose and Mono Q; also called Hu CD3εδ Fc heterodimer; CD3εδ Fc-HIS heterodimer; not shown: Fc-HIS part of CD3δ Fc-HIS
T4 sequence (chain, as listed by the source mutant, form in doubt, chain 1 of 2): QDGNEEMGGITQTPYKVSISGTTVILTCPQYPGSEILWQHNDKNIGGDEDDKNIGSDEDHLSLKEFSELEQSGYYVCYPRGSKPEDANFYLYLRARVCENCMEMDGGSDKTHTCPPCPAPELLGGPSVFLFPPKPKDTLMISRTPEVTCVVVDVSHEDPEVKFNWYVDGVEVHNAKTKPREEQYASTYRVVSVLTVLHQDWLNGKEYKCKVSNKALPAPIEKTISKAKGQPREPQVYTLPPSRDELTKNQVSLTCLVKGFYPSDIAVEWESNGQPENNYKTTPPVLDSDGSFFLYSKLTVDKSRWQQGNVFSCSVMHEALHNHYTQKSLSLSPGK
T4 sequence (P04234 22-100, stated change not applied, form in doubt, chain 2 of 2): as the sequence (Q95LI8 22-100, stated change not applied, form in doubt, chain 2 of 2) above, with V5I, K15N, V20I, T32S, N33D, N34I, A64T, N74S counted along it
The assay is described as follows: BLI (Octet), yeast-produced IgG on AHC sensor, CD3εδ-Fc 100 nM in solution, pH 6.0. The procedure: as §3, §4

The target in assay [7] is T3, cynomolgus CD3εδ-Fc heterodimer (Cy …). Described as above. The procedure:
as §3, §4

Assay [8] addresses T4, human CD3εδ-Fc heterodimer (Hu CD3ε Fc …). In words: BLI (Octet), yeast-produced IgG on AHC sensor, CD3εδ-Fc 100 nM in solution, pH 7.4. The procedure: as §3, §4
Assay [9] has as its target T3, cynomolgus CD3εδ-Fc heterodimer (Cy …). The assay is described as above. Here is the method: as §3, §4
For assay [10] the target is unchanged. In words: BLI (Octet), CHO-produced IgG on AHC sensor, CD3εδ-Fc 100 nM in solution, pH 7.4. The procedure:
as §3, §4

In assay [11] the target is T4, human CD3εδ-Fc heterodimer (Hu CD3ε Fc …). In words: SPR (Biacore 8K), CHO-produced Fab, monovalent, pH 7.4. Here is the method:
(§5) Anti-CD3 antibodies (Antibody Nos. 1-13) were produced as human IgG1 antibodies in yeast or Chinese hamster ovary (CHO) cells, and Fab fragments were generated from the IgG1 antibodies by papain digestion and purified IgGs produced in yeast were aglycosylated. CHO produced IgGs had standard CH2 glycosylation. […] Monovalent binding affinity to human or cynomolgus CD3εδ-Fc at pH 7.4 and pH 6.0 were measured via surface plasmon resonance (SPR) using the BIACORE® 8K (Cytiva, previously GE Healthcare Life Sciences) system and analyzed using BIACORE® Evaluation Software.
(§6) BIACORE® KD measurements (surface plasmon resonance; SPR). BIACORE® affinity measurements were performed generally as previously described. Briefly, human CD3εδ-Fc heterodimer produced as described above was immobilized to a NiNTA sensor chip in a BIACORE® 8K (Cytiva, previously GE Healthcare Life Sciences) to a response level of ˜500 RUs. […] The sensor chip was doubly regenerated between cycles using 0.35 M EDTA and 0.1 M NaOH. The resulting data were double reference subtracted and fit to a 1:1 binding model using BIACORE® Evaluation Software.

The target of assay [12] is T3, cynomolgus CD3εδ-Fc heterodimer (Cy …). The description is as above. Here is the method:
as §5, §6

Assay [13] concerns the target T4, human CD3εδ-Fc heterodimer (Hu CD3ε Fc …). In words: SPR (Biacore 8K), yeast-produced Fab, monovalent, pH 6.0. Here is the method:
as §5, §6

Assay [14] shares this target. In words: SPR (Biacore 8K), CHO-produced Fab, monovalent, pH 6.0. The procedure:
as §5, §6

For assay [15], the target named is T3, cynomolgus CD3εδ-Fc heterodimer (Cy …). Described as above. Here is the method:
as §5, §6

For assay [16], the target named is T4, human CD3εδ-Fc heterodimer (Hu CD3ε Fc …). The assay is described as follows: BLI (Octet), CD3εδ-Fc on AHC sensor, CHO-derived Fab 100 nM in solution, pH 7.4.
Assay [17] has the same target. The assay is described as follows: BLI (Octet), CD3εδ-Fc on AHC sensor, CHO-derived Fab 100 nM in solution, pH 6.0.
The target is the same in assay [18]. In words: SPR (Biacore 8K), yeast-produced Fab, monovalent, pH 7.4. The procedure: as §5, §6

T1 sequence (Q95LI5 22-198): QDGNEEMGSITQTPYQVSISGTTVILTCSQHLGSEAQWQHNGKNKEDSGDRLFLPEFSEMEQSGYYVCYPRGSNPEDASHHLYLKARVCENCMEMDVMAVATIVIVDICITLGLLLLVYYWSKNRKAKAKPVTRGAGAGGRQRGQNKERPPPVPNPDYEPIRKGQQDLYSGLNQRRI

B1: ADI-26906 (Antibody No. 1), human IgG1 (antibody, V domains shown)
VH: QVQLVQSGAEVKKPGASVKVSCKASGFNIKDYYMHWVRQAPGQRLEWMGWIDLENANTIYDAKFQGRVTITRDTSASTAYMELSSLRSEDTAVYYCARDAYGRYFYDVWGQGTLVTVSS
VL: DIVMTQSPDSLAVSLGERATINCKSSQSLLNARTGKNYLAWYQQKPGQPPKLLIYWASTRESGVPDRFSGSGSGTDFTLTISSLQAEDVAVYYCKQSYSRRTFGGGTKVEIK
notes: Non-pH-dependent parent; Tested as human IgG1 (yeast-produced aglycosylated, or CHO-produced); also called Ab No. 1
Regarding B1, the NCB in assay [1] was 560; in assay [2] it was 167; in assay [3] it was 149; in assay [5], 203. Besides, the Kd was determined as 5.89 nM in assay [4]; 2.84 nM in assay [6]; 2.5 nM in assay [7]; 4.35 nM in assay [8]; 4.1 nM in assay [9]; 5.87 nM in assay [10].

B2: Fab of ADI-74968 (Antibody No. 6) (Fab, V domains shown)
VH: QVQLVQSGAEVKKPGASVKVSCKASGFNIKDYYMHWVRQAPGQRLEWMGWIDLENANTIYDAKFQGRVTITRDTSASTAYMELSSLRSEDTAVYYCARDAYHRYFYDVWGQGTLVTVSS
VL: DIVMTQSPDSLAVSLGERATINCKSSQSLLNARTGHNYLAWYQQKPGQPPKLLIYWASTRESGVPDRFSGSGSGTDFTLTISSLQAEDVAVYYCKQSYSHRTFGGGTKVEIK
notes: Fab made by papain digestion of the human IgG1 (yeast- or CHO-produced); also called Antibody No. 6 Fab; ADI-74968 Fab
For the molecule B2, the Kd amounted to 47.5 nM in [11]; 46.5 nM in [12]; 6.07 nM in [13]; 6.37 nM in assay [14]; 6.18 nM in assay [15]; 69.3 nM in assay [16]. For the same molecule, the Kd in [17] was determined as 14.8 nM.

B3: Fab of ADI-26906 (Antibody No. 1) (Fab, V domains shown)
VH: QVQLVQSGAEVKKPGASVKVSCKASGFNIKDYYMHWVRQAPGQRLEWMGWIDLENANTIYDAKFQGRVTITRDTSASTAYMELSSLRSEDTAVYYCARDAYGRYFYDVWGQGTLVTVSS
VL: DIVMTQSPDSLAVSLGERATINCKSSQSLLNARTGKNYLAWYQQKPGQPPKLLIYWASTRESGVPDRFSGSGSGTDFTLTISSLQAEDVAVYYCKQSYSRRTFGGGTKVEIK
notes: Fab made by papain digestion of the human IgG1 (yeast- or CHO-produced); also called Antibody No. 1 Fab; ADI-26906 Fab
B3: the Kd in assay [11] worked out at 1.09 nM; in assay [12] it was 1.09 nM; in assay [13] it was 1.9 nM; in assay [14] it was 1.25 nM; in assay [15], 1.9 nM; in [16] it was 6.03 nM. Besides, the Kd turned out to be 5.81 nM in assay [17] and 2.4 nM in assay [18].

B4: Fab of ADI-74965 (Antibody No. 3) (Fab, V domains shown)
VH: QVQLVQSGAEVKKPGASVKVSCKASGFNIKDYYMHWVRQAPGQRLEWMGWIDLENANTIYDAKFQGRVTITRDTSASTAYMELSSLRSEDTAVYYCARDAYHRYFYDVWGQGTLVTVSS
VL: DIVMTQSPDSLAVSLGERATINCKSSQSLLNARTGHNYLAWYQQKPGQPPKLLIYWASTRESGVPDRFSGSGSGTDFTLTISSLQAEDVAVYYCKQSHSHRTFGGGTKVEIK
notes: Fab made by papain digestion of the human IgG1 (yeast- or CHO-produced); also called Antibody No. 3 Fab; ADI-74965 Fab
In the case of B4, the Kd in assay [13] was determined as 10.5 nM; in [14], 10.9 nM; in [15], 11.3 nM; in assay [16], 142 nM; in assay [17], 24.4 nM.

B5: Fab of ADI-74967 (Antibody No. 5) (Fab, V domains shown)
VH: QVQLVQSGAEVKKPGASVKVSCKASGFNIKDYYMHWVRQAPGQRLEWMGWIDLENANTIYDAKFQGRVTITRDTSASTAYMELSSLRSEDTAVYYCARDHYHRYFYDVWGQGTLVTVSS
VL: GIVMTQSPDSLAVSLGERATINCKSSQSLLNARTGKNYLAWYQQKPGQPPKLLIYWASTRESGVPDRFSGSGSGTDFTLTISSLQAEDVAVYYCKQSHSHRTFGGGTKVEIK
notes: Fab made by papain digestion of the human IgG1 (yeast- or CHO-produced); also called Antibody No. 5 Fab; ADI-74967 Fab
In the case of B5, the Kd in assay [11] stood at 55.5 nM; in [12], 73.7 nM; in [13], 8.45 nM; in assay [14], 8.16 nM; in [15] it was 11.6 nM; in assay [17], 24.9 nM.
